Experimental data as given in paper PMC3902906.

Columns and labels:
[1] = molecular target: CsoR^Sl R57A (copper sensitive operon repressor from Streptomyces lividans, R57A mutant) (Streptomyces lividans 1326); assay: SEC; analytical gel filtration column, retention volume of the purified mutant protein alone; data not shown
[2] = molecular target: CsoR (CsoRSl) wild type (Streptomyces lividans 1326) (UniProt D6EK73); assay: ITC; settings: ITC: 10 mM HEPES, 150 mM NaCl, pH 7.5, 25 C, 100 uM DNA into 10 uM CsoR tetramer, EMSA: same buffer, room temperature, 30 min, 6% PAGE in TBE, SEC: same buffer
[3] = molecular target: CsoR^Sl Q81A (copper sensitive operon repressor from Streptomyces lividans, Q81A mutant) (Streptomyces lividans 1326); assay: SEC; analytical gel filtration column, retention volume of the purified mutant protein alone; data not shown
[4] = molecular target: CsoR^Sl R132A (copper sensitive operon repressor from Streptomyces lividans, R132A mutant) (Streptomyces lividans 1326); assay: as above
[5] = molecular target: CsoR^Sl R129A (copper sensitive operon repressor from Streptomyces lividans, R129A mutant) (Streptomyces lividans 1326); assay: as above
[6] = molecular target: CsoR^Sl R54A (copper sensitive operon repressor from Streptomyces lividans, R54A mutant) (Streptomyces lividans 1326); assay: as above

| Substance | Kd [2] [nM] | further results |
| --- | --- | --- |
| CsoR^Sl R57A (copper sensitive operon repressor from Streptomyces lividans, R57A mutant) (natural protein) |  | stoichiometry N [1]: 4 |
| CGTTGGGTACCCCCTAGGGGTATACATGG (double strand) [copZA1-EXT] |  | Kd ([2]; apo, reverse titration (protein into DNA), N 0.86): 112 nM |
| ATACCCCTGGTGGGTATAT (double strand) [csoR-CON] | 120 |  |
| CsoR^Sl Q81A (copper sensitive operon repressor from Streptomyces lividans, Q81A mutant) (natural protein) |  | stoichiometry N [3]: 4 |
| TATACCCCCTAGGGGTA (double strand) [copZA2-CON] | 107 |  |
| CGTTGGGTACCCCCTAGGGGTATATATGG (double strand) [copZA1-GTA down] | 87 |  |
| GCCTTTATACCCCCTAGGGGTAAGGTGGG (double strand) [copZA2-EXT] | 57 |  |
| TACCCCCTAGGGGTAT (double strand) [copZA1-CON] | 971 |  |
| CsoR^Sl R132A (copper sensitive operon repressor from Streptomyces lividans, R132A mutant) (natural protein) |  | stoichiometry N [4]: 4 |
| CGTTGGATACCCCCTAGGGGTATACATGG (double strand) [copZA1-GTA up] | 96 |  |
| CGGACAAATACCCCTGGTGGGTATATATGG (double strand) [csoR-EXT] | 74 |  |
| CsoR^Sl R129A (copper sensitive operon repressor from Streptomyces lividans, R129A mutant) (natural protein) |  | stoichiometry N [5]: 4 |
| CsoR^Sl R54A (copper sensitive operon repressor from Streptomyces lividans, R54A mutant) (natural protein) |  | stoichiometry N [6]: 4 |
